From patent publication EP4703386A1 (Shanghai Sinobay Biotechnology Co., Ltd., dated 2026) come the findings set out here.

Experiment [1] deals with T1, CD276 protein on tumor target cells (NCI-H292, SK-OV-3) (human, UniProt Q5ZPR3 29-534).
T1 construct: whole, on cells; for SK-OV-3 it is implied by the use of CD276-targeted BiTE and CAR; also called B7-H3; CD276-expressing target cells
T1 sequence (looked up): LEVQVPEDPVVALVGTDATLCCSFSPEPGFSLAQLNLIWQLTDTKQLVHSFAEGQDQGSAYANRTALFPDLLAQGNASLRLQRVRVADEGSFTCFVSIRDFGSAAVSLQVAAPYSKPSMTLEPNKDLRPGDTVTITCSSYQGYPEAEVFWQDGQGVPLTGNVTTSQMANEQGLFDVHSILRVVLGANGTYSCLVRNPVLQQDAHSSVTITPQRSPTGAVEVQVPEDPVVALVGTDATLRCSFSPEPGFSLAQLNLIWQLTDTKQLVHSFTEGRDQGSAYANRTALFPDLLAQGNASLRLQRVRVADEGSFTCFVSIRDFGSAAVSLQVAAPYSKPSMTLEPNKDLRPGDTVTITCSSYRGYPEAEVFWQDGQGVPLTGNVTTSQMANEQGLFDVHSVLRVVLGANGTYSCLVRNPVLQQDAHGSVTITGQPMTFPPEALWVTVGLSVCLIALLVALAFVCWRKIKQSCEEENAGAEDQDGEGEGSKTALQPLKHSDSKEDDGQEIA
Kind of experiment: flow cytometry on NCI-H292 cells, IgG-Fc-PE second antibody.

The target in experiment [2] is T1, CD276 protein on tumor target cells …. Briefly: flow cytometry on NCI-H292 cell line (Fig. 3).
Experiment [3] shares this target. Kind of experiment: cell-based or functional assay.

B1: Hu012-14 (antibody, IgG1, V domains shown)
VH: EVQLVETGGGLVQPGGSLRLSCAASGFTFSSYGMTWVRQPPGKGLEWVSHISGSGTNTYYADSVKGRFTISRDNSKNTLYLQMNNLGAEDTAVYYCAKLKWGHSGYGDYWGQGTTVTVSS
VL: EIVLTQSPATLSLSPGERATLSCRASQTISRYLAWYQQKPGQAPRLLIYDASNRATGIPARFSGSGSDTDFTLTISSIEPEDFAVYYCQERSNWPQVTFGPGTKLEIK
notes: Full-length IgG1 (AbVec-hIgG1, AbVec-hIgKappa); also called candidate antibody Hu012-14
B1: the binding result in experiment [1] is on record as “binds”.

B2: Hu012-24 (antibody, IgG1, V domains shown)
VH: EVQLVQSGGGLVKPGGSLRLSCAASGFTFSRHSMNWVRQAPGKGLEWVSSISSNDEHIIYADSVKGRFTISRDNSKNTLYLEMNSLRAEDTAVYYCARASRYGGSYYGLDYWGQGTLVTVSS
VL: QTVVTQEPSFSVSPGGTVTLTCGLTSGSVSTTYFPSWYQQTPGQPPRRLIYNTNTRSSGVPDRFSGSIVGIKAALTITGAQAEDESDYYCALYLGSGIVEFGGGTKLTVL
notes: Full-length IgG1 (AbVec-hIgG1, AbVec-hIgKappa); also called candidate antibody Hu012-24
As to B2, the positive rate in experiment [1] was roughly 100%.

B3: Hu012-1 (antibody, V domains shown)
VH: QVTLKESGGGLVQPGGSLRLSCAASGSIFNMYAMGWYRQAPGKQRELVASITSGGSTHYADSVKGRFTISRDNAKNTMYLQMNSLKPEDTAVYYCRQNDGMDYWGKGTLVTVSS
VL: QAGLTQPPSVSVAPGKTARITCGGNNIGSKSVHWYQQKPGQAPVVVIYDDSDRPSGIPERFSGSNSGNTATLTISRVEAGDEADFYCQVWDSSSDRYVFGTGTKLTVL
notes: Full-length IgG1 (AbVec-hIgG1, GenBank FJ475055.1; AbVec-hIgKappa, GenBank FJ475056.1); also called candidate antibody Hu012-1
Molecule B3 displayed a positive rate in experiment [1] of roughly 100%.

B4: Hu012-3 (antibody, IgG1, V domains shown)
VH: QVQLVQSGAEVKKPGESLRISCKGSGYSFTSYWISWVRQMPGKGLEWMGRIDPSDSYTNYSPSFQGHVTISADKSISTAYLQWSSLKASDTAMYYCARHDASGGGPSDYWGQGTLVTVSS
VL: QSVLTQPPSVSAAPGQRVTISCSGSSSNIGDHYVSWYQQLPGTAPKLLIYDNNKRPSGIPDRFSGSKSGTSATLGITGLQTGDEADYYCGTWDSSLSVPNWVFGGGTKVTVL
notes: Full-length IgG1 (AbVec-hIgG1, AbVec-hIgKappa); also called candidate antibody Hu012-3
On to B4, for which the binding result in experiment [2] is given as “binds”.

B5: Hu012-7-4-1BB-CD3ζ chimeric antigen receptor on lentivirus-transduced T cells (other)
chain: GDYKDDDDKGSEVQLVESGGGVVQPGRSLTLSCAASGFTFNGYSMHWVRQAPGKGLEWVAVMSSDGGNKYYADSVKGRFTISRDNSKNTLYLQMNGLRPEDTAVYYCARAVSSGWSLPFDFWGHGTLVTVSSGGGGSGGGGSGGGGSDIVMTQSPSSLSTSIGDRVTITCRASQGISNFLAWFQQKPGKAPKSLIYAASRLQSGVPSKFSGSGSGTNFTLTISSLQPEDFATYYCQQYDSYPLTFGGGTKVEIKTRTTTPAPRPPTPAPTIASQPLSLRPEACRPAAGGAVHTRGLDFACDIYIWAPLAGTCGVLLLSLVITLYCKRGRKKLLYIFKQPFMRPVQTTQEEDGCSCRFPEEEEGGCELRVKFSRSADAPAYKQGQNQLYNELNLGRREEYDVLDKRRGRDPEMGGKPRRKNPQEGLYNELQKDKMAEAYSEIGMKGERRRGKGHDGLYQGLSTATKDTYDALHMQALPPR
Turning to B5, in experiment [3], the “killing efficiency on SKOV3 cells, effector to target ratio 1:1” value was roughly 30% and the “killing efficiency on SKOV3 cells, effector to target ratio 2:1” value is greater than 60%.

B6: Hu012-21 (antibody, IgG1, V domains shown)
VH: EVQLVQSGGGVVQPGRSLRLSCAASGFTFSSYGMHWVRQAPGKGLEWVAVISYDGSNKYYADSVKGRFTISRDNSKDTLYLQMNSLRAEDTAVYYCAKDKLMGWHNYGMDVWGQGTTVTVSS
VL: AIQLTQSPSSLSASVGDRVTITCRASQSINSYLNWYQQKPGKAPKVLIYAASNLQSGVPSRFSGSGSGTDFTLTISSLQPEDFATYYCQQSYSTPPTFGQGTKLEIK
notes: Full-length IgG1 (AbVec-hIgG1, AbVec-hIgKappa); also called candidate antibody Hu012-21
B6: in experiment [1], the binding result is given as “binds”.

B7: Hu012-6 (antibody, IgG1, V domains shown)
VH: QMQLVQSGGGLVQPGGSLRLSCAASGFTFSSYWMSWVRQAPGKGLEWVANIKQDGSEKYYVDSVKGRFTISRDNAKNSLYLQMNSLRAEDTAVYYCARSPHYDFWRRDYYYGMDVWGQGTLVTVSS
VL: QSVLTQPPSVSATPGQTVTISCSGSTSNIATNYVSWYQHLPGSAPKLLIYDNNKRPSGIPDRFSGSKSGTSATLDIIGLQTGDEADYYCGVWDPSLTTYVFGTGTQLTAL
notes: Full-length IgG1 (AbVec-hIgG1, AbVec-hIgKappa); also called candidate antibody Hu012-6
On to B7, for which the binding result in experiment [2] was “binds”.

B8: CD276(Hu012-7)BiTE (bispecific antibody)
chain: DIVMTQSPSSLSTSIGDRVTITCRASQGISNFLAWFQQKPGKAPKSLIYAASRLQSGVPSKFSGSGSGTNFTLTISSLQPEDFATYYCQQYDSYPLTFGGGTKVEIKGGGGSGGGGSGGGGSEVQLVESGGGVVQPGRSLTLSCAASGFTFNGYSMHWVRQAPGKGLEWVAVMSSDGGNKYYADSVKGRFTISRDNSKNTLYLQMNGLRPEDTAVYYCARAVSSGWSLPFDFWGHGTLVTVSSGGGGSQVQLVQSGAEVKKPGASVKVSCKASGYTFTRYTMHWVRQAPGQGLEWMGYINPSRGYTNYNQKFKDRVTITADKSTSTAYMELSSLRSEDTAVYYCARYYDDHYCLDYWGQGTTVTVSSGGGGSGGGGSGGGGSGSEIVLTQSPATLSLSPGERATLSCSASSSVSYMNWYQQKPGKAPKRLIYDTSKLASGVPSRFSGSGSGTDFTLTINSLEAEDAATYYCQQWSSNPFTFGQGTKVEIKR
Take B8: in experiment [3], the “fold increase in killing the NCI-H292 tumor cell line against control BiTE” value came to 1.2 fold and the “fold increase in killing the SK-OV3 tumor cell line against control BiTE” value was found to be 2.1 fold.

B9: Hu012-8 (antibody, IgG1, V domains shown)
VH: QVQLVQSGAEVKKPGASVRVSCKGSGYTFTDHHMYWVRQAPGQGLEWMGRINPNTGVTNYAQKFQGRVSMTRDTSINTVYLELRSLKSDDAAVYYCGRDQVVMVPGVPLDLGMDVWGQGTTVTVSS
VL: NIQMTQSPSSLSASVGDRVTITCRASQTISRYLNWYQQKPGKAPKLLIYAASSLQSGVPSRFSGSGSGADFTLTINTLQPEDFATYYCQQSYRTPQTFGQGTKVEIK
notes: Full-length IgG1; also called candidate antibody Hu012-8
B9 gave a positive rate in experiment [1] of roughly 100%.

B10: Hu012-13 (antibody, IgG1, V domains shown)
VH: EVQLVQSGAEVKKPGASVKVSCKASGYTFTSYGISWVRQAPGQGLEWMGWISAYNGNTNYAQKLQGRVTMTTDTSTSTAYMELRSLRSDDTAVYYCARAPYYGGYDYWGQGTMVTVSS
VL: ETTLTQSPGTLSLSPGDRATLSCRASQSVRSSYLAWYQQKPGQAPRLVIYGASNRAAGIPDRFSGSGSGTDFTLTISGLEPEDFAVYYCQEYGYSLPNTFGQGTKLEIK
notes: Full-length IgG1 (AbVec-hIgG1, AbVec-hIgKappa); also called candidate antibody Hu012-13
Turning to B10, the binding result in experiment [1] is reported as “binds”.

B11: CD276(Hu012-8)BiTE (bispecific antibody)
chain: NIQMTQSPSSLSASVGDRVTITCRASQTISRYLNWYQQKPGKAPKLLIYAASSLQSGVPSRFSGSGSGADFTLTINTLQPEDFATYYCQQSYRTPQTFGQGTKVEIKGGGGSGGGGSGGGGSQVQLVQSGAEVKKPGASVRVSCKGSGYTFTDHHMYWVRQAPGQGLEWMGRINPNTGVTNYAQKFQGRVSMTRDTSINTVYLELRSLKSDDAAVYYCGRDQVVMVPGVPLDLGMDVWGQGTTVTVSSGGGGSQVQLVQSGAEVKKPGASVKVSCKASGYTFTRYTMHWVRQAPGQGLEWMGYINPSRGYTNYNQKFKDRVTITADKSTSTAYMELSSLRSEDTAVYYCARYYDDHYCLDYWGQGTTVTVSSGGGGSGGGGSGGGGSGSEIVLTQSPATLSLSPGERATLSCSASSSVSYMNWYQQKPGKAPKRLIYDTSKLASGVPSRFSGSGSGTDFTLTINSLEAEDAATYYCQQWSSNPFTFGQGTKVEIKR
For B11, in experiment [3], the “fold increase in killing the NCI-H292 tumor cell line against control BiTE” value turned out to be 1.2 fold and the “fold increase in killing the SK-OV3 tumor cell line against control BiTE” value was 2 fold.

B12: Hu012-27 (antibody, IgG1, V domains shown)
VH: QVQLVQSGGGVVQPGRSLRLSCAASGFTFSSYAMHWVRQAPGKGLEWVAVISYDGSNKYYADSVKGRFTISRDNSKNTLYLQMNSLRAEDTTVYYCARDRRYYSSMDVWGQGTTVTVSS
VL: QTVVTQEPSFSVSPGGTITLTCGLSSGSVSTSYYPSWYQQTPGQAPRTLIYNTNTRSSGVPDRFSGSILGNKAALTITGAQADDESHYYCALHMDSGSWVFGGGTQLTVL
notes: Full-length IgG1 (AbVec-hIgG1, AbVec-hIgKappa); also called candidate antibody Hu012-27
For B12, the binding result in experiment [1] was “binds”.

B13: Hu012-29 (antibody, V domains shown)
VH: EVQLVESGGGLVQPGGSLRLSCAASRNIFRFYTMGWYRQAPEKQRDLVARITSDGTTNYADSVKGRFTISRDNAKNTVYLQMNSLKPEDTAVYYCNTDLPLNTYWAQGTLVTVSS
VL: DIQMTQSPSSLSASVGDRVTITCRASQSISSSLNWYQHKPGKAPKLLIYSASILQSGVPSRFSGSGSGTDYTLTISSLQPEDFATYSCQQSYTTPYTFGLGTKLEIK
notes: Full-length IgG1 (AbVec-hIgG1, AbVec-hIgKappa); also called candidate antibody Hu012-29
Regarding B13, in experiment [1], the binding result was “binds”.
